Source: patent US20210130436A1

Columns and labels:
[1] = target: PD-L1 (human) (UniProt Q9NZQ7); assay: cell-based or functional assay
[2] = target: CD28 (human) (UniProt P10747); assay: cell-based or functional assay

Sequence of PD-L1 (human) (Q9NZQ7 19-290): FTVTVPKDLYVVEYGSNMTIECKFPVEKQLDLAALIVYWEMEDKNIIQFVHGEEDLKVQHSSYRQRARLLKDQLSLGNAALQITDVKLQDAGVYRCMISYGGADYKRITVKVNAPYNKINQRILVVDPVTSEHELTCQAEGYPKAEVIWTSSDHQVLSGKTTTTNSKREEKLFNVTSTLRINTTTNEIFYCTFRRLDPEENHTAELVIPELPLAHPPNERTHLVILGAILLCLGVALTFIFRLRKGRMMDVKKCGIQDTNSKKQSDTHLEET

“variant CD80 IgV-Fc (effector) A71D/L72V/E95K (Fc fusion)” gave an RLU, Jurkat/IL2 reporter; K562/OKT3/PD-L1 aAPC, Combination of FcR and/or PD-L1 Dependent Cross-Linking; 1.9 nM [1] of 1540 RLU, an RLU, Jurkat/IL2 reporter; K562/OKT3/PD-L1 aAPC, Combination of FcR and/or PD-L1 Dependent Cross-Linking; 5.6 nM [1] of 2520 RLU and an RLU, Jurkat/IL2 reporter; K562/OKT3/PD-L1 aAPC, Combination of FcR and/or PD-L1 Dependent Cross-Linking; 16.7 nM [1] of 3640 RLU. For the same substance, the RLU, Jurkat/IL2 reporter; K562/OKT3/PD-L1 aAPC, Combination of FcR and/or PD-L1 Dependent Cross-Linking; 50 nM [1] was 4030 RLU, the IL-2 release, primary T cells; K562/OKT3 (No PD-L1); 10 nM [2] was 15100 and the IL-2 release, primary T cells; K562/OKT3 (No PD-L1); 100 nM [2] was 21300. It also gave an RLU, Jurkat/IL2 reporter; K562/OKT3 aAPC, FcR Dependent Cross-Linking (No PD-L1); 0.6 nM [2] of 1820 RLU, an RLU, Jurkat/IL2 reporter; K562/OKT3 aAPC, FcR Dependent Cross-Linking (No PD-L1); 1.9 nM [2] of 2590 RLU and an RLU, Jurkat/IL2 reporter; K562/OKT3 aAPC, FcR Dependent Cross-Linking (No PD-L1); 5.6 nM [2] of 4130 RLU. The RLU, Jurkat/IL2 reporter; K562/OKT3 aAPC, FcR Dependent Cross-Linking (No PD-L1); 16.7 nM [2] was 5550 RLU and the RLU, Jurkat/IL2 reporter; K562/OKT3 aAPC, FcR Dependent Cross-Linking (No PD-L1); 50 nM [2] was 7110 RLU.
Work on “variant CD80 IgV-Fc (inert) E35D/M47I/L70M (Fc fusion)” yielded an IL-2 release, primary T cells; K562/OKT3/PD-L1; 1 nM [1] of 311, an IL-2 release, primary T cells; K562/OKT3/PD-L1; 10 nM [1] of 6980 and an IL-2 release, primary T cells; K562/OKT3/PD-L1; 100 nM [1] of 8390. It also gave an IL-2-luciferase RLU, Jurkat + CHO/OKT3/PD-L1 aAPC, 0.6 nM [2] of 1000 RLU, an IL-2-luciferase RLU, Jurkat + CHO/OKT3/PD-L1 aAPC, 1.9 nM [2] of 1640 RLU and an IL-2-luciferase RLU, Jurkat + CHO/OKT3/PD-L1 aAPC, 5.6 nM [2] of 2350 RLU. The IL-2-luciferase RLU, Jurkat + CHO/OKT3/PD-L1 aAPC, 16.7 nM [2] was 2630 RLU, the IL-2-luciferase RLU, Jurkat + CHO/OKT3/PD-L1 aAPC, 50 nM [2] was 2630 RLU and the IL-2-luciferase RLU, Jurkat + CHO/OKT3 aAPC (no PD-L1), 5.6 nM [2] was 549 RLU. The IL-2-luciferase RLU, Jurkat + CHO/OKT3 aAPC (no PD-L1), 16.7 nM [2] was 544 RLU and the IL-2-luciferase RLU, Jurkat + CHO/OKT3 aAPC (no PD-L1), 50 nM [2] was 600 RLU.
In the case of “CD80 IgV-Fc E35D/M47V/I61V/L85M (from UniProt P33681 35-141) (Fc fusion)”, the Jurkat/IL2 + CHO/OKT3/PD-L1 reporter assay, RLU at CD80 Conc 5.0 nM [1] is reported as 1180 RLU.
“CD80 IgV-Fc (inert) H18Y/A26P/E35D/M47I/V68M/A71G (from UniProt P33681 35-141) (Fc fusion)” showed an RLU, Jurkat/IL2 + CHO/OKT3/PD-L1 Reporter Assay, CD80 Conc 5.0 nM [1] of 761 RLU.
Work on “variant CD80 IgV-Fc (effector) E35D/D46V/L85Q (Fc fusion)” yielded an RLU, Jurkat/IL2 reporter; K562/OKT3/PD-L1 aAPC, Combination of FcR and/or PD-L1 Dependent Cross-Linking; 0.6 nM [1] of 1420 RLU, an RLU, Jurkat/IL2 reporter; K562/OKT3/PD-L1 aAPC, Combination of FcR and/or PD-L1 Dependent Cross-Linking; 1.9 nM [1] of 2430 RLU and an RLU, Jurkat/IL2 reporter; K562/OKT3/PD-L1 aAPC, Combination of FcR and/or PD-L1 Dependent Cross-Linking; 5.6 nM [1] of 3310 RLU. It also gave an RLU, Jurkat/IL2 reporter; K562/OKT3/PD-L1 aAPC, Combination of FcR and/or PD-L1 Dependent Cross-Linking; 16.7 nM [1] of 3640 RLU, an RLU, Jurkat/IL2 reporter; K562/OKT3/PD-L1 aAPC, Combination of FcR and/or PD-L1 Dependent Cross-Linking; 50 nM [1] of 4130 RLU and an IL-2 release, primary T cells; K562/OKT3 (No PD-L1); 1 nM [2] of 14300. It also gave an IL-2 release, primary T cells; K562/OKT3 (No PD-L1); 10 nM [2] of 21500, an IL-2 release, primary T cells; K562/OKT3 (No PD-L1); 100 nM [2] of 25400 and an RLU, Jurkat/IL2 reporter; K562/OKT3 aAPC, FcR Dependent Cross-Linking (No PD-L1); 0.6 nM [2] of 1880 RLU. For the same substance, the RLU, Jurkat/IL2 reporter; K562/OKT3 aAPC, FcR Dependent Cross-Linking (No PD-L1); 1.9 nM [2] was 2720 RLU, the RLU, Jurkat/IL2 reporter; K562/OKT3 aAPC, FcR Dependent Cross-Linking (No PD-L1); 5.6 nM [2] was 4400 RLU and the RLU, Jurkat/IL2 reporter; K562/OKT3 aAPC, FcR Dependent Cross-Linking (No PD-L1); 16.7 nM [2] was 6020 RLU. For the same substance, the RLU, Jurkat/IL2 reporter; K562/OKT3 aAPC, FcR Dependent Cross-Linking (No PD-L1); 50 nM [2] was 7020 RLU.
“CD80 IgV-Fc E35D/L97R (from UniProt P33681 35-141) (Fc fusion)” gave a Jurkat/IL2 + CHO/OKT3/PD-L1 reporter assay, RLU at CD80 Conc 5.0 nM [1] of 914 RLU.
Work on “CD80 IgV-Fc E35D/M43I/M47L/L85M (from UniProt P33681 35-141) (Fc fusion)” yielded a Jurkat/IL2 + CHO/OKT3/PD-L1 reporter assay, RLU at CD80 Conc 5.0 nM [1] of 1430 RLU.
“CD80 IgV-Fc E35D/D46E/A91G (from UniProt P33681 35-141) (Fc fusion)” was tested, and the Jurkat/IL2 + CHO/OKT3/PD-L1 reporter assay, RLU at CD80 Conc 5.0 nM [1] was 395 RLU.
“CD80 IgV-Fc E35D/M47V (from UniProt P33681 35-141) (Fc fusion)” showed a Jurkat/IL2 + CHO/OKT3/PD-L1 reporter assay, RLU at CD80 Conc 5.0 nM [1] of 1350 RLU.
“CD80 IgV-Fc E35D/T41S/N48T (from UniProt P33681 35-141) (Fc fusion)” showed a Jurkat/IL2 + CHO/OKT3/PD-L1 reporter assay, RLU at CD80 Conc 5.0 nM [1] of 1140 RLU.
Work on “CD80 IgV-Fc (inert) H18T/A26N/E35D/M47L/V68M/A71G (from UniProt P33681 35-141) (Fc fusion)” yielded an RLU, Jurkat/IL2 + CHO/OKT3/PD-L1 Reporter Assay, CD80 Conc 5.0 nM [1] of 1050 RLU.
“CD80 IgV-Fc E35D/M43I/D46E/A71G/L85M (from UniProt P33681 35-141) (Fc fusion)” showed a Jurkat/IL2 + CHO/OKT3/PD-L1 reporter assay, RLU at CD80 Conc 5.0 nM [1] of 1480 RLU.
For “CD80 IgV-Fc E35D/M47L/A71G (from UniProt P33681 35-141) (Fc fusion)”, the Jurkat/IL2 + CHO/OKT3/PD-L1 reporter assay, RLU at CD80 Conc 5.0 nM [1] was 1950 RLU.
“CD80 IgV-Fc (inert) H18Y/E35D/M47V/V68M/A71G (from UniProt P33681 35-141) (Fc fusion)” gave an RLU, Jurkat/IL2 + CHO/OKT3/PD-L1 Reporter Assay, CD80 Conc 5.0 nM [1] of 963 RLU.
For “CD80 IgV-Fc V22A/E35D/M47L/A71G (from UniProt P33681 35-141) (Fc fusion)”, the Jurkat/IL2 + CHO/OKT3/PD-L1 reporter assay, RLU at CD80 Conc 5.0 nM [1] was 2580 RLU.
For “CD80 IgV-Fc E35D/N48K/L72V (from UniProt P33681 35-141) (Fc fusion)”, the Jurkat/IL2 + CHO/OKT3/PD-L1 reporter assay, RLU at CD80 Conc 5.0 nM [1] was 1730 RLU.
Substance “CD80 IgV-Fc (inert) H18Y/A26Q/E35D/M47T/V68M/A71G/D90G (from UniProt P33681 35-141) (Fc fusion)” has an RLU, Jurkat/IL2 + CHO/OKT3/PD-L1 Reporter Assay, CD80 Conc 5.0 nM [1] of 994 RLU.
“CD80 IgV-Fc M43I/M47L/A71G (from UniProt P33681 35-141) (Fc fusion)” was tested, and the Jurkat/IL2 + CHO/OKT3/PD-L1 reporter assay, RLU at CD80 Conc 5.0 nM [1] was 1640 RLU.
“CD80 IgV-Fc (inert) H18A/A26N/E35D/M47L/V68M/A71G/D90G (from UniProt P33681 35-141) (Fc fusion)” was tested, and the RLU, Jurkat/IL2 + CHO/OKT3/PD-L1 Reporter Assay, CD80 Conc 5.0 nM [1] was 1050 RLU.
With “CD80 IgV-Fc H18Y/E35D/M47L/A71G/A91S (from UniProt P33681 35-141) (Fc fusion)” the Jurkat/IL2 + CHO/OKT3/PD-L1 reporter assay, RLU at CD80 Conc 5.0 nM [1] was 1900 RLU.
Work on “CD80 IgV-Fc D46V/M47I/A71G (from UniProt P33681 35-141) (Fc fusion)” yielded a Jurkat/IL2 + CHO/OKT3/PD-L1 reporter assay, RLU at CD80 Conc 5.0 nM [1] of 1600 RLU.
Substance “CD80 IgV-Fc (inert) H18R/A26P/E35D/D46N/M47V/V68M/A71G/D90P (from UniProt P33681 35-141) (Fc fusion)” has an RLU, Jurkat/IL2 + CHO/OKT3/PD-L1 Reporter Assay, CD80 Conc 5.0 nM [1] of 972 RLU.
“CD80 IgV-Fc E35D/M47V/L85M/R94Q (from UniProt P33681 35-141) (Fc fusion)” showed a Jurkat/IL2 + CHO/OKT3/PD-L1 reporter assay, RLU at CD80 Conc 5.0 nM [1] of 466 RLU.
“CD80 IgV-Fc E35D/D46E/L85M (from UniProt P33681 35-141) (Fc fusion)” showed a Jurkat/IL2 + CHO/OKT3/PD-L1 reporter assay, RLU at CD80 Conc 5.0 nM [1] of 1410 RLU.
“CD80 IgV-Fc E35D/D46E/M47I (from UniProt P33681 35-141) (Fc fusion)” gave a Jurkat/IL2 + CHO/OKT3/PD-L1 reporter assay, RLU at CD80 Conc 5.0 nM [1] of 1920 RLU.
With “CD80 IgV-Fc (inert) H18V/A26K/E35D/M47L/V68M/A71G (from UniProt P33681 35-141) (Fc fusion)” the RLU, Jurkat/IL2 + CHO/OKT3/PD-L1 Reporter Assay, CD80 Conc 5.0 nM [1] was 957 RLU.
For “CD80 IgV-Fc E35D/D46E (from UniProt P33681 35-141) (Fc fusion)”, the Jurkat/IL2 + CHO/OKT3/PD-L1 reporter assay, RLU at CD80 Conc 5.0 nM [1] was 1960 RLU.
In the case of “CD80 IgV-Fc M47I/A71G (from UniProt P33681 35-141) (Fc fusion)”, the Jurkat/IL2 + CHO/OKT3/PD-L1 reporter assay, RLU at CD80 Conc 5.0 nM [1] is reported as 1760 RLU.
With “CD80 IgV-Fc (inert) H18V/A26N/E35D/M47V/V68M/A71G (from UniProt P33681 35-141) (Fc fusion)” the RLU, Jurkat/IL2 + CHO/OKT3/PD-L1 Reporter Assay, CD80 Conc 5.0 nM [1] was 985 RLU.
“CD80 IgV-Fc E35D/M47V/T62S/L85Q (from UniProt P33681 35-141) (Fc fusion)” gave a Jurkat/IL2 + CHO/OKT3/PD-L1 reporter assay, RLU at CD80 Conc 5.0 nM [1] of 1400 RLU.
Work on “CD80 IgV-Fc (inert) H18C/A26P/E35D/M47L/V68M/A71G (from UniProt P33681 35-141) (Fc fusion)” yielded an RLU, Jurkat/IL2 + CHO/OKT3/PD-L1 Reporter Assay, CD80 Conc 5.0 nM [1] of 936 RLU.
